Source: publication PMC2148113 (The Journal of Cell Biology, 1999)
Values belong to the molecule of their own block, whether it stands above or below them.

Key:
[1] = target: Flag-tagged Nodal precursor (mouse); assay: non-reducing SDS-PAGE with immunoblot
[2] = target: the molecule itself; assay: non-reducing SDS-PAGE with immunoblot

stoichiometry N [1]: 2
Molecule: Flag-tagged Nodal precursor (natural protein)

B1: mature MycBMP4 (domain or fragment, mouse, UniProt P21275 293-408, looked up)
chain: SPKHHPQRSRKKNKNCRRHSLYVDFSDVGWNDWIVAPPGYQAFYCHGDCPFPLADHLNSTNHAIVQTLVNSVNSSIPKACCVPTELSAISMLYLDEYDKVVLKNYQEMVVEGCGCR
stoichiometry N [2]: 2
